Consider 94 variants from the supplement of paper PMC10567573.

B1: TOR1AIP2 (parent)
chain: HHVADAYTSSQKVSPIQIDGAGRT
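Also: lentivirally expressed fusions sorted by FACS into six bins by GFP to DsRed ratio, PSI derived from sequencing read proportions per bin multiplied by bin number.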

This data set covers variants of B1. Nature of the data set: protein stability index of a GFP-peptide fusion (GPS, HEK-293T) (PSI 1-6); higher = more stable. The note with it: c terminus: a fixed tail appended.
As for HHVADAYTSSQKVTPIQIDGAGRT [S14T], the protein stability index was 3.22.
The same measure for HHVADAYTSSQKVNPIQIDGAGRT [S14N]: 4.01; for HHVADAYTSSQKVYPIQIDGAGRT [S14Y]: 2.71.
The same measure for HHVADAYTSSQKVGPIQIDGAGRT [S14G]: 3.27.
The same measure for HHVADAYTSSQKVPPIQIDGAGRT [S14P]: 3.25.
Take HHVADAYTSSQKVFPIQIDGAGRT [S14F]: the protein stability index worked out at 3.34.
The result for HHVADAYTSSQKVEPIQIDGAGRT [S14E] reads 4.13; that for HHVADAYTSSQWVSPIQIDGAGRT [K12W], 2.72.
The same measure for HHVADAYTSSQEVSPIQIDGAGRT [K12E]: 3.84; for HHVADAYTSSQIVSPIQIDGAGRT [K12I]: 3.13; for HHVADAYTSSQAVSPIQIDGAGRT [K12A]: 3.85.
The same measure for HHVADAYTSSQYVSPIQIDGAGRT [K12Y]: 3.02; for HHVADAYTSIQKVSPIQIDGAGRT [S10I]: 2.72.
As for HHVADAYTSWQKVSPIQIDGAGRT [S10W], the protein stability index came to 2.37.
The result for HHVADAYTSQQKVSPIQIDGAGRT [S10Q] reads 3.24; that for HHVADAYTSGQKVSPIQIDGAGRT [S10G], 3.81; that for HHVADAYTSFQKVSPIQIDGAGRT [S10F], 2.95.
The result for HHVADAYTSTQKVSPIQIDGAGRT [S10T] reads 3.28; that for HHVADAYTSEQKVSPIQIDGAGRT [S10E], 3.98; that for HHVANAYTSSQKVSPIQIDGAGRT [D5N], 3.33.
For the variant HHVAYAYTSSQKVSPIQIDGAGRT [D5Y], the protein stability index worked out at 2.35.
The same measure for HHVAMAYTSSQKVSPIQIDGAGRT [D5M]: 2.48; for HHVATAYTSSQKVSPIQIDGAGRT [D5T]: 3.68.
The result for HHVAQAYTSSQKVSPIQIDGAGRT [D5Q] reads 2.93; that for HHVAGAYTSSQKVSPIQIDGAGRT [D5G], 3.97; that for HHVADAYTSSQKKSPIQIDGAGRT [V13K], 3.66.
HHVADAYTSSQKPSPIQIDGAGRT [V13P]: the protein stability index stood at 3.82.
The result for HHVADAYTSSQKLSPIQIDGAGRT [V13L] reads 3.56; that for HHVADAYTSSQKTSPIQIDGAGRT [V13T], 3.8.
The result for HHVADAYTSSQKVSFIQIDGAGRT [P15F] reads 2.82.
The result for HHVADAYTSSQKVSIIQIDGAGRT [P15I] reads 2.77; that for HHVADAYTSSQKVSLIQIDGAGRT [P15L], 3.45; that for HHVADAYTSSQKVSNIQIDGAGRT [P15N], 3.47.
As to HHVADAYTSSQKVSPIQIDMAGRT [G20M], the protein stability index was 3.44.
The result for HHVADAYTSSQKVSPIQIDCAGRT [G20C] reads 3.19; that for HHVADAYTSSQKVSPIQIDRAGRT [G20R], 3.38.
The same measure for HHVADAYTSSQKVSPIQIFGAGRT [D19F]: 2.77; for HHVADAYTSSQKVSPIQIQGAGRT [D19Q]: 3.75.
The result for HHVADAYTSSQKVSPIQIIGAGRT [D19I] reads 2.54; that for HHVADQYTSSQKVSPIQIDGAGRT [A6Q], 4.32; that for HHVADNYTSSQKVSPIQIDGAGRT [A6N], 4.26.
In the case of HHVADHYTSSQKVSPIQIDGAGRT [A6H], the protein stability index came out at 3.85.
In the case of HHVADAYTFSQKVSPIQIDGAGRT [S9F], the protein stability index stood at 2.9.
The result for HHVADAYTMSQKVSPIQIDGAGRT [S9M] reads 3.52; that for HHVADAYTSSQKVSPIQIDGACRT [G22C], 3.6.
For the variant HHVADAYTSSQKVSPIQIDGAQRT [G22Q], the protein stability index was 3.5.
The result for HHVADAYTSSQKVSPIQIDGARRT [G22R] reads 3.19; that for HHVADAYTSSLKVSPIQIDGAGRT [Q11L], 3.27.
The same measure for HHVADAYTSSHKVSPIQIDGAGRT [Q11H]: 3.
On to HHVADAYTSSTKVSPIQIDGAGRT [Q11T], for which the protein stability index came to 3.6.
The result for HHVADAYTSSKKVSPIQIDGAGRT [Q11K] reads 3.56; that for HHVADAYTSSNKVSPIQIDGAGRT [Q11N], 3.29; that for HHVADAYASSQKVSPIQIDGAGRT [T8A], 4.09.
The same measure for HHVADAYSSSQKVSPIQIDGAGRT [T8S]: 3.69; for HHVADAYDSSQKVSPIQIDGAGRT [T8D]: 4.66.
The result for HHVADAYYSSQKVSPIQIDGAGRT [T8Y] reads 3.45; that for HKVADAYTSSQKVSPIQIDGAGRT [H2K], 4.32; that for HNVADAYTSSQKVSPIQIDGAGRT [H2N], 4.27.
As for HMVADAYTSSQKVSPIQIDGAGRT [H2M], the protein stability index was determined as 2.81.
The result for HRVADAYTSSQKVSPIQIDGAGRT [H2R] reads 3.67; that for HVVADAYTSSQKVSPIQIDGAGRT [H2V], 1.99; that for HHVADAYTSSQKVSPIQIDGHGRT [A21H], 3.7.
Turning to HHVADAYTSSQKVSPIQIDGYGRT [A21Y], the protein stability index was determined as 3.22.
On to HHVADAYTSSQKVSPIQIDGWGRT [A21W], for which the protein stability index is 2.67.
The result for HHVADAYTSSQKVSPIQIDGRGRT [A21R] reads 3.55.
The result for HHVADAYTSSQKVSPIQIDGTGRT [A21T] reads 3.85; that for HHVADAYTSSQKVSPIQADGAGRT [I18A], 4.03.
The result for HHVADAYTSSQKVSPIQYDGAGRT [I18Y] reads 2.97; that for HHVADAYTSSQKVSPIQWDGAGRT [I18W], 3.26.
For the variant HHVADAHTSSQKVSPIQIDGAGRT [Y7H], the protein stability index was found to be 4.84.
The same measure for HHVADAATSSQKVSPIQIDGAGRT [Y7A]: 5.04; for HHIADAYTSSQKVSPIQIDGAGRT [V3I]: 4.2.
The same measure for HHCADAYTSSQKVSPIQIDGAGRT [V3C]: 1.75; for HHWADAYTSSQKVSPIQIDGAGRT [V3W]: 2.42; for HHKADAYTSSQKVSPIQIDGAGRT [V3K]: 3.19.
For HHVADAYTSSQKVSPIQIDGAGRL [T24L], the protein stability index was 3.09.
The same measure for HHVADAYTSSQKVSPIQIDGAGRH [T24H]: 3.38; for HHVADAYTSSQKVSPIQIDGAGET [R23E]: 3.91; for HHVADAYTSSQKVSPIQIDGAGWT [R23W]: 3.1.
The result for HHVADAYTSSQKVSPIQIDGAGPT [R23P] reads 3.01; that for HHVADAYTSSQKVSPIQIDGAGVT [R23V], 3.29; that for HHVADAYTSSQKVSPIQIDGAGKT [R23K], 3.28.
The same measure for QHVADAYTSSQKVSPIQIDGAGRT [H1Q]: 4.15; for HHVWDAYTSSQKVSPIQIDGAGRT [A4W]: 3.57; for HHVTDAYTSSQKVSPIQIDGAGRT [A4T]: 2.27.
Regarding HHVSDAYTSSQKVSPIQIDGAGRT [A4S], the protein stability index amounted to 3.84.
The result for HHVRDAYTSSQKVSPIQIDGAGRT [A4R] reads 3.95.
The same measure for HHVNDAYTSSQKVSPIQIDGAGRT [A4N]: 4.17; for HHVEDAYTSSQKVSPIQIDGAGRT [A4E]: 4.43; for HHVMDAYTSSQKVSPIQIDGAGRT [A4M]: 4.01.
The result for HHVADAYTSSQKVSPIDIDGAGRT [Q17D] reads 3.67; that for HHVADAYTSSQKVSPVQIDGAGRT [I16V], 4.05; that for HHVADAYTSSQKVSPQQIDGAGRT [I16Q], 3.69.
Regarding HHVADAYTSSQKVSPHQIDGAGRT [I16H], the protein stability index was 3.45.
